# The supplement of paper PMC9170038
# Test system: MS2 coat protein
# Test: apparent KD of MS2 coat protein, switch ON state; designed switch direction (-1 OFF switch, 1 ON switch): -1; higher = weaker reporter binding
# Conditions: FMN input: 0 or 200 uM; Eterna round: R93 (includes R88 designs)
# In short: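 Designed RNA switches were transcribed on-chip from Illumina sequencing clusters and titrated with SNAP-549-labelled MS2 coat protein in twofold steps from 0.7 or 1.5 nM up to 3 µM. Each step lasted 0.8–1.5 h at first and 10–20 min by the end, in 100 mM Tris-HCl pH 7.5, 80 mM KCl and 4 mM MgCl2, without or with constant ligand. Apparent KD is the median, for each design, of fits to normalised cluster binding curves.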
row,Sequence,apparent KD of MS2 coat protein
1,ACUAACGGAGGAUAUACUAACAAACCUCAAACAUACAUCAAACAUGAGGAUCACCCAUGUAGAAGGCCGAAACU [JR_Exc002_Sub004],34.4 nM
2,CCUAUGUCAGGAUAUCAGUAGUAAAAAAAAAAAAUUACUACUGAGAAGGGACAUGAGGAUCACCCAUGUUCAAA [EX4 313: Super Stable 13],42.4 nM
3,GAAUGAUGAGGAUAUACAUGAGGAUCACCCAUGUGUAAAAAUAAAUACACAAAAGAAAGUAGAAGGCAUCAAAG [Mat - Exclusion 3 - Mayanna mod - D120],22.9 nM
4,AACAGUACAGGAUAUACAUGAGGAUCACCCAUGUGAAAAUUAAGUGGAGAACCACAAUGUAGAAGGGUACUGGA [Mat - Exclusion 3 - Eli mod - D48],133 nM
5,AAAACGCUAGGAUAUACAAAAAAAAAGGGAAAAAAAAAGGGACAUGAGGAUCACCCAUGUAGAAGGAGCAAAAA [Diamond 87],68.5 nM
6,CUCUAGUUAGGAUAUCGAAGAAAAGAAAAGAAAGAAAAGAACGAGAAGGAACAUGAGGAUCACCCAUGUAAGAA [EteRNA is fun!],29.1 nM
7,AUGUACCUAGGAUAUACAUGAGGAUCACCCAUGUAUUGGGAGCAAUCCAGUUAAUAUUGUAGAAGGAGGUGAAA [JR_Exc003_Sub317],38.1 nM
8,AGCUAGACAGGAUAUACGUAAAUGUCGAAAGACGUAUAGGGACAUGAGGAUCACCCAUGUAGAAGGGUCUAGCA [Diamond 100],22.7 nM
9,AAGAACUGAGGAUAUACAUGAAAGAAAGAAAAGAAAAGAAAACAUGAGGAUCACCCAUGUAGAAGGCAGAAGAA [EteRNA is fun!],16.9 nM
10,AAAAGGAUAGGAUAUACAUGAGGAUCACCCAUGUGAAUAAAUAAAAGAAAUAAAGAAAGUAGAAGGGUCAAGAA,25.8 nM
11,CCUGUGUGAGGAUAUGGUAAAAAAAAAAAAAAAUAGCUCCUCCAGAAGGCACAUGAGGAUCACCCAUGUCGUGG [Jolly's Folly 16 - Jieux - Exclusion 4],37.6 nM
12,AAAAAACAUGAGGAUCACCCAUGUGAGGAUAUGUACGAAAUAAAUAAAAAAUAAAAGUACAGAAGGCACAAAAA [Mat - Exclusion 1 - Eli mod - D5],35.5 nM
13,GUCGUGUGAGGAUAUGGAAAGUAGAAGUGGCGGUCGAAAACCUAGAAGGCACAUGAGGAUCACCCAUGUAAGAG [JR_Exc004_Sub1708],57 nM
14,AAUAACCGAGGAUAUACAUGAGGAUCACCCAUGUGAACAUCCACGAAAAGGAUUCUGUGUAGAAGGCGGAAACC [Soquar],15.3 nM
15,UCACACCUAGGAUAUACAUGAGGAUCACCCAUGUGGCACUCCGCAGGCAGUGUUCCCAGUAGAAGGAGGACACG [Ricere],27.8 nM
16,AAAAAACAUGAGGAUCACCCAUGUCAGGAUAUCCGGUUCAAAAAAAAAAAAAGGCGUUGGAGAAGGGACAUUCC [Chica Displaced 10 - Jieux - Exclusion 1],28 nM
17,AAAGAGUCAGGAUAUUCGUAUAGAGUAGCGCGACUCUAUACGAAGAAGGGACAUGAGGAUCACCCAUGUAAAAA [Ecls4-I],50.6 nM
18,AAGAAUGAAGGAUAUACAUGAGGAUCACCCAUGUAAAAGAAAGAGGGAAAAGAGAAAAGUAGAAGGUCAAAGAA [Ptolemy XI Alexander II],19.8 nM
19,AAAACGUGAGGAUAUGCACCAAAAAAGGUUUUUCGGGUACGACAUGAGGAUCACCCAUGUAGAAGGCACGAAAA [Frodo Flailing 14 - Jieux - Exclusion 2],20.3 nM
20,AAGGGACAUGAGGAUCACCCAUGUGAGGAUAUGACGUAAAGAAAGAAAGAAGAAAUCGUCAGAAGGCACACCAA [Mat - Exclusion 1 - Eli mod - D70],70.6 nM
21,UAGAAGGUAGGAUAUACUUGGGAAACUAAUGCAAAGAUAUAACAUGAGGAUCACCCAUGUAGAAGGGCCAGUAA [JR_Exc002_Sub018],114 nM
22,ACCUUACAUGAGGAUCACCCAUGUUAGGAUAUCUCGCUCUCGCAGUCACAGCGCAAGCAGAGAAGGGACACGGG [Maretien],32.6 nM
23,AAUAUGUUAGGAUAUGCUGCUCGUCACAAAAGUGAUGAGUAGCAGAAGGAACAUGAGGAUCACCCAUGUAAAGA [JL eternac mod 12],31.1 nM

row,Sequence,apparent KD of MS2 coat protein
1,AAAACGGUAGGAUAUACAAUUGGGAACUAGACCGAAAAACCACAUGAGGAUCACCCAUGUAGAAGGGCCAAAAA [Ex2 Malc#12],39.2 nM
2,AAGAAGUCAGGAUAUGCCAGAGAUCAAGAAAGUGACGAGUAGCAGAAGGGACAUGAGGAUCACCCAUGUAAAGA [Opal 8],45.9 nM
3,AAAAAGCGAGGAUAUACAUGAGGAUCACCCAUGUCAAAAAAAUAGAAAAAAAUAAAAAGUAGAAGGCGCAAAAA [Ex 3 #1],75.8 nM
4,GGUUGGCGAGGAUAUACAUGAGGAUCACCCAUGUGAGAGAAAAAAGUGAGAAUGAAAAGUAGAAGGCGCUGACG [salish99-ex3-35],46.2 nM
5,AGUCAUACAGGAUAUACAUGAGGAUCACCCAUGUUUAUCCUAAAAAGGUGAUCCUCAUGUAGAAGGGUAUGACA [EX3 210: Super Stable 10],12.4 nM
6,AACAUGUCAGGAUAUGCAAAAGGAGACUGACACGCGAGUGAGCAGAAGGGACAUGAGGAUCACCCAUGUUCAAA [Mat - Mod of Meechl],20.9 nM
7,AGCAGUACAGGAUAUACAUGAGGAUCACCCAUGUGAAAAAAAAGUGGCGUACCACAAAGUAGAAGGGUACUGCA [Mat - Exclusion 3 - JL mod - D32],35.4 nM
8,GAUCCACAUGAGGAUCACCCAUGUAAGGAUAUUUAAAACCGGAGGAAACCCUCCGAAGAAAGAAGGUACAAAAC [Atceabi],14.6 nM
9,AAGAAGAAAGGAUAUACAAGGAAGAAAGAAAAGAAAAGAAAACAUGAGGAUCACCCAUGUAGAAGGUUCUAGAA [EteRNA is fun!],15.2 nM
10,"AAAAAACAUGAGGAUCACCCAUGUAAGGAUAUGCUCGUGCGAAAGCACAAAAAAAAGAGCAGAAGGUACAAAAA [66%, Wbt, 38]",19.8 nM
11,GUGUACAGAGGAUAUACUGGAGCAUGGAAACAUGCAAGAUCACAUGAGGAUCACCCAUGUAGAAGGCUGUACAC [Ex2: 742],119 nM
12,AAAAAGGCAGGAUAUACGAAACAGGGAAACCUGAAAGGGAAACAUGAGGAUCACCCAUGUAGAAGGGCCAAGAA [Clint Eastwood 64% 2],48.3 nM
13,AAGAACGGAGGAUAUACAAAAUAAAAGAAAAGAAAGAAAGAACAUGAGGAUCACCCAUGUAGAAGGCCGAAGAA [Sehetepibre Sewesekhtawy],20.9 nM
14,AACAGUACAGGAUAUACAUGAGGAUCACCCAUGUAAAAAUAAAAGGGAAUCUCAAAAAGUAGAAGGGUACUGGA [Moding Maslow revisited (73) 13],72.5 nM
15,AAUACACAUGAGGAUCACCCAUGUAAGGAUAUCGAAAAAAAACUAAACAAAAAACAAACGAGAAGGUACAAAAA [Exclusion 1 design 4],30.4 nM
16,AAGAAGCAAGGAUAUACAUGAAAGAAAGAAAAGAAAAGAAAACAUGAGGAUCACCCAUGUAGAAGGUGCUAGAA [EteRNA is fun!],34.6 nM
17,AACAGUACAGGAUAUACAUGAGGAUCACCCAUGUGAAAAUUAAGUGGAAAACCACAAUGUAGAAGGGUACUGGA [Mat - Exclusion 3 - Eli mod - D49],46.1 nM
18,"AAAGGACGAGGAUAUACAUGAGGAUCACCCAUGUAAAAAACAUAAAAAAAGAACUUAUGUAGAAGGCGUCCAAA [69%, Moding Meechl, 3]",52.7 nM
19,UCCUGACAUGAGGAUCACCCAUGUCAGGAUAUCUACAGAACCUCAUGUAAAAAACUGUAGAGAAGGGAUAUGGG [Design 98: Pseudoknot H],16.9 nM
20,AAAACGGCAGGAUAUACAGAUGAGAUCUCGACCGAAAAAAAACAUGAGGAUCACCCAUGUAGAAGGGCCAAAAA [Ex2 Malc#5],30.1 nM
21,CCCUAGUCAGGAUAUACAAACAUGUCAAAAGACGUGAAAAAACAUGAGGAUCACCCAUGUAGAAGGGACUAGGG [Mat - Exclusion 2 - JL mod - D19],15.3 nM
22,AAAACGGCAGGAUAUACAGAUGAGAACUCGACCGAAAAAAAACAUGAGGAUCACCCAUGUAGAAGGGCCAAAAA [Ex2 Malc#6],30.1 nM
